T1: FcγRIIb (human, UniProt P31994 43-217)
T1 construct: extracellular domain; also called FcgRIIb; 2b; not shown: His tag at the C terminus
T1 sequence (looked up): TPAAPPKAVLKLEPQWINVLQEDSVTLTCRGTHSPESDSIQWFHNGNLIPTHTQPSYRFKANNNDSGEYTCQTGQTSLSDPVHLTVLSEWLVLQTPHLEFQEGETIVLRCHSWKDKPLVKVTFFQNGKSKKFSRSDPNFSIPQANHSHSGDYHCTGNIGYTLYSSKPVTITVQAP

T2: FcγRIIb extracellular domain with C-terminal His tag (human, UniProt P31994 43-217)
T2 construct: extracellular domain; Soluble receptor expressed in FreeStyle293 cells, used as analyte in Biacore; also called FcgRIIb; 2b; not shown: His tag at the C terminus
T2 sequence (looked up): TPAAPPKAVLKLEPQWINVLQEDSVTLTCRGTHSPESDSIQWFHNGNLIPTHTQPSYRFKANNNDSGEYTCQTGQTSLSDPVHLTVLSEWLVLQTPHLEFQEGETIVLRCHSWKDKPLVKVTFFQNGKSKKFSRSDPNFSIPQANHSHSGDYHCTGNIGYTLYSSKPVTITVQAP


Key:
FcγRIa [1] = biological target: T3, FcγRIa (human, UniProt P12314 16-292); assay: SPR (Biacore); He/Con_1a (FcγRIa) divided by He/Con_2b (FcγRIIb)
T3 construct: extracellular domain; also called FcgRI; 1a; not shown: His tag at the C terminus
T3 sequence (P12314 16-292): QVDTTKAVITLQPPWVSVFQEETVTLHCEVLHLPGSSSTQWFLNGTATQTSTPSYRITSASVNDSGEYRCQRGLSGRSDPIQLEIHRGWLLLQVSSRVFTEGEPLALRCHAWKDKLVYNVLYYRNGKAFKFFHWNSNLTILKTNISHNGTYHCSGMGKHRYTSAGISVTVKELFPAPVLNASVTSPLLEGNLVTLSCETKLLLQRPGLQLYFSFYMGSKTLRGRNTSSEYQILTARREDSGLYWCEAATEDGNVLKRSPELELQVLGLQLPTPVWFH

FcγRIIb = biological target: T1, FcγRIIb; assay: SPR (Biacore), antibody captured, FcγR as analyte; binding as % of GpH7-A5/GpH7-B3/GpL16-k0
FcγRIa [2] = biological target: T3, FcγRIa; assay: as above
[3] = biological target: T4, FcγRIIIa extracellular domain with C-terminal His tag (human, UniProt P08637 17-208); assay: SPR; He/Con_3a divided by He/Con_2b (FcγRIIIa over FcγRIIb)
T4 construct: extracellular domain; also called FcgRIIIa; 3a; not shown: His tag at the C terminus
T4 sequence (P08637 17-208): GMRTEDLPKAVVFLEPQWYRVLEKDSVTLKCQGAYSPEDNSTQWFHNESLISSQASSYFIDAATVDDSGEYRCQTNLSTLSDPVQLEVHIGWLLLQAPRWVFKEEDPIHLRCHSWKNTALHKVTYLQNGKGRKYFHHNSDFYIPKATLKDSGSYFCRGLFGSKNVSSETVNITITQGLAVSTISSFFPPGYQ
Protocol: (§1) Analysis of interaction between objective antibody and the FcγR was carried out using Biacore T100 (GE Healthcare). HBS-EP+ (GE Healthcare) was used as the running buffer, and the measurement temperature was set to 25° C. Chips produced by immobilizing the antigen peptide by the amine coupling method to a Series S Sencor Chip CM5 (GE Healthcare), or alternatively, chips produced by allowing preliminarily biotinylated antigen peptides to interact with and immobilize onto a Series S Sensor Chip SA (certified) (GE Healthcare) were used. Antibodies of interest were captured onto an antigen peptide-immobilized chip, and allowed to interact to each FcγR diluted with running buffer. To regenerate and repeatedly use the chip, the antibodies captured on the chip were washed off by reacting 10 mM glycine-HCl, pH 1.5.
(§2) The FcγR-binding activity of each antibody was assessed primarily using as an indicator the FcγR-binding activity and dissociation constant for FcγR.

[4] = biological target: T4, FcγRIIIa extracellular domain with …; assay: SPR (Biacore), antibody captured on antigen peptide chip, FcγR as analyte
Protocol: as §1, §2

[5] = biological target: T2, FcγRIIb extracellular domain with …; assay: as above
Protocol: as §1, §2

Row | Binder | Ia/IIb He_1a/2b (FcγRIa [1]) [ratio] | He/Con_2b (FcγRIIb) | He/Con_1a (FcγRIa [2]) | He_3a/2b (IIIa/IIb) [3] [ratio] | He/Con_3a [4] | He/Con_2b [5]
1 | GpH7-A5/GpH7-B3 variant L328_15Y/GpL16-k0 (antibody, human IgG1, kappa, heterodimerized IgG1; alteration in the GpH7-B3 H chain only; also called He Ab) heavy 1: not shown heavy 2: not shown light: DIVMTQSPLSLPVTPGEPASISCQASESLVHSNRNTYLHWYLQKPGQSPQLLIYKVSNRFSGVPDRFSGSGSGTDFTLKISRVEAEDVGVYYCSQNTHVPPTFGQGTKVEIERTVAAPSVFIFPPSDEQLKSGTASVVCLLNNFYPREAKVQWKVDNALQSGNSQESVTEQDSKDSTYSLSSTLTLSKADYEKHKVYACEVTHQGLSSPVTKSFNRGEC | 0.53 | 193 % of control | 102 % of control |  |  | 
2 | GpH7-A5/GpH7-B3 variant L328_20W/GpL16-k0 (antibody, human IgG1, kappa, heterodimerized IgG1; alteration in the GpH7-B3 H chain only; also called He Ab) heavy 1: not shown heavy 2: not shown light: DIVMTQSPLSLPVTPGEPASISCQASESLVHSNRNTYLHWYLQKPGQSPQLLIYKVSNRFSGVPDRFSGSGSGTDFTLKISRVEAEDVGVYYCSQNTHVPPTFGQGTKVEIERTVAAPSVFIFPPSDEQLKSGTASVVCLLNNFYPREAKVQWKVDNALQSGNSQESVTEQDSKDSTYSLSSTLTLSKADYEKHKVYACEVTHQGLSSPVTKSFNRGEC | 0.44 | 235 % of control | 103 % of control |  |  | 
3 | GpH7-A5/GpH7-B3 variant N325_04F/GpL16-k0 (antibody, human IgG1, kappa, heterodimerized IgG1; alteration in the GpH7-B3 H chain only; also called He Ab) heavy 1: not shown heavy 2: not shown light: DIVMTQSPLSLPVTPGEPASISCQASESLVHSNRNTYLHWYLQKPGQSPQLLIYKVSNRFSGVPDRFSGSGSGTDFTLKISRVEAEDVGVYYCSQNTHVPPTFGQGTKVEIERTVAAPSVFIFPPSDEQLKSGTASVVCLLNNFYPREAKVQWKVDNALQSGNSQESVTEQDSKDSTYSLSSTLTLSKADYEKHKVYACEVTHQGLSSPVTKSFNRGEC | 0.65 | 143 % of control | 93.2 % of control |  |  | 
4 | GpH7-A5/GpH7-B3 variant L328_15Y/GpL16-k0 (antibody, human IgG1, kappa, Heterodimerized anti-glypican-3 IgG1; L328Y (EU) only in the GpH7-B3 chain; also called He Ab) heavy 1: not shown heavy 2: not shown light: DIVMTQSPLSLPVTPGEPASISCQASESLVHSNRNTYLHWYLQKPGQSPQLLIYKVSNRFSGVPDRFSGSGSGTDFTLKISRVEAEDVGVYYCSQNTHVPPTFGQGTKVEIERTVAAPSVFIFPPSDEQLKSGTASVVCLLNNFYPREAKVQWKVDNALQSGNSQESVTEQDSKDSTYSLSSTLTLSKADYEKHKVYACEVTHQGLSSPVTKSFNRGEC |  |  |  | 0.35 | 68.3 relative binding (GpH7-A5/GpH7-B3/GpL16-k0 = 100) | 193 relative binding (GpH7-A5/GpH7-B3/GpL16-k0 = 100)

Further lines, results first:

Row | Ia/IIb He_1a/2b (FcγRIa [1]) [ratio] | He/Con_2b (FcγRIIb) | He/Con_1a (FcγRIa [2]) | He_3a/2b (IIIa/IIb) [3] [ratio] | He/Con_3a [4] | He/Con_2b [5] | Binder
5 |  |  |  | 0.74 | 74.8 relative binding (GpH7-A5/GpH7-B3/GpL16-k0 = 100) | 102 relative binding (GpH7-A5/GpH7-B3/GpL16-k0 = 100) | GpH7-A5/GpH7-B3 variant P331_06M/GpL16-k0 (antibody, human IgG1, kappa, Heterodimerized anti-glypican-3 IgG1; P331M (EU) only in the GpH7-B3 chain; also called He Ab) heavy 1: not shown heavy 2: not shown light: DIVMTQSPLSLPVTPGEPASISCQASESLVHSNRNTYLHWYLQKPGQSPQLLIYKVSNRFSGVPDRFSGSGSGTDFTLKISRVEAEDVGVYYCSQNTHVPPTFGQGTKVEIERTVAAPSVFIFPPSDEQLKSGTASVVCLLNNFYPREAKVQWKVDNALQSGNSQESVTEQDSKDSTYSLSSTLTLSKADYEKHKVYACEVTHQGLSSPVTKSFNRGEC
6 |  |  |  | 0.75 | 72.1 relative binding (GpH7-A5/GpH7-B3/GpL16-k0 = 100) | 95.7 relative binding (GpH7-A5/GpH7-B3/GpL16-k0 = 100) | GpH7-A5/GpH7-B3 variant P331_08L/GpL16-k0 (antibody, human IgG1, kappa, Heterodimerized anti-glypican-3 IgG1; P331L (EU) only in the GpH7-B3 chain; also called He Ab) heavy 1: not shown heavy 2: not shown light: DIVMTQSPLSLPVTPGEPASISCQASESLVHSNRNTYLHWYLQKPGQSPQLLIYKVSNRFSGVPDRFSGSGSGTDFTLKISRVEAEDVGVYYCSQNTHVPPTFGQGTKVEIERTVAAPSVFIFPPSDEQLKSGTASVVCLLNNFYPREAKVQWKVDNALQSGNSQESVTEQDSKDSTYSLSSTLTLSKADYEKHKVYACEVTHQGLSSPVTKSFNRGEC
7 |  |  |  | 0.65 | 75.1 relative binding (GpH7-A5/GpH7-B3/GpL16-k0 = 100) | 116 relative binding (GpH7-A5/GpH7-B3/GpL16-k0 = 100) | GpH7-A5/GpH7-B3 variant P331_10E/GpL16-k0 (antibody, human IgG1, kappa, Heterodimerized anti-glypican-3 IgG1; P331E (EU) only in the GpH7-B3 chain; also called He Ab) heavy 1: not shown heavy 2: not shown light: DIVMTQSPLSLPVTPGEPASISCQASESLVHSNRNTYLHWYLQKPGQSPQLLIYKVSNRFSGVPDRFSGSGSGTDFTLKISRVEAEDVGVYYCSQNTHVPPTFGQGTKVEIERTVAAPSVFIFPPSDEQLKSGTASVVCLLNNFYPREAKVQWKVDNALQSGNSQESVTEQDSKDSTYSLSSTLTLSKADYEKHKVYACEVTHQGLSSPVTKSFNRGEC
8 |  |  |  | 0.8 | 67.5 relative binding (GpH7-A5/GpH7-B3/GpL16-k0 = 100) | 84.7 relative binding (GpH7-A5/GpH7-B3/GpL16-k0 = 100) | GpH7-A5/GpH7-B3 variant P331_11K/GpL16-k0 (antibody, human IgG1, kappa, Heterodimerized anti-glypican-3 IgG1; P331K (EU) only in the GpH7-B3 chain; also called He Ab) heavy 1: not shown heavy 2: not shown light: DIVMTQSPLSLPVTPGEPASISCQASESLVHSNRNTYLHWYLQKPGQSPQLLIYKVSNRFSGVPDRFSGSGSGTDFTLKISRVEAEDVGVYYCSQNTHVPPTFGQGTKVEIERTVAAPSVFIFPPSDEQLKSGTASVVCLLNNFYPREAKVQWKVDNALQSGNSQESVTEQDSKDSTYSLSSTLTLSKADYEKHKVYACEVTHQGLSSPVTKSFNRGEC

— patent US20180155451A1 (published 2018)
